Our source for the Kd and HEK-Blue EC50 values is CN109912717A.

One test has as its target 人CD40(ECD)-his蛋白 (human) (UniProt P25942). Nature of the test: SPR Biacore 8K; human CD40(ECD)-his coupled to CM5, antibody as analyte, 1:1 model.
The target of test [1] is 人CD40 (HEK293A细胞表达) (human) (UniProt P25942). Briefly: cell-based or functional assay.
Chain of 人CD40 (HEK293A细胞表达) (human) (P25942 21-277 limits assumed): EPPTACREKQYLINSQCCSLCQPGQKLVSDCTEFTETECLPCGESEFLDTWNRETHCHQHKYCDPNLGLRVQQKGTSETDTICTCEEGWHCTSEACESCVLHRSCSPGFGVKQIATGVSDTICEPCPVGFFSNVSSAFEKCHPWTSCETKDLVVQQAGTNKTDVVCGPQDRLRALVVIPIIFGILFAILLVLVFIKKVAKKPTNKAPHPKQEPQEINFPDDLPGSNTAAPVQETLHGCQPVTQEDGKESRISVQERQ

Chain of 人CD40(ECD)-his蛋白 (human) (P25942 21-193): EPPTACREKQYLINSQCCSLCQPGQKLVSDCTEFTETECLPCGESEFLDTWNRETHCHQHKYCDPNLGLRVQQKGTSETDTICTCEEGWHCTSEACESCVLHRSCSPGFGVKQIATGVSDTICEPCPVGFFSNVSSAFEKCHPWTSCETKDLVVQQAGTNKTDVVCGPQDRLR

In turn, RO7009789 (antibody) had a Kd with 人CD40(ECD)-his蛋白 (human) of 1.71 nM. In addition, in test [1], the HEK-Blue EC50 turned out to be 0.0233 µg/mL.
Regarding ADC1013 (antibody), in the test with 人CD40(ECD)-his蛋白 (human), the Kd worked out at 29 nM. The same substance displayed an HEK-Blue EC50 in test [1] of 1.03 µg/mL.
